B1: RIT1 (parent)
chain: FHALVREIRRKEKEAVLAMEKKSK
B2: GALNT9 (parent)
chain: FTQSGPIVSRATGRCLEVEMSKDA

Variants of: B1
Test: protein stability index of a GFP-peptide fusion (GPS, HEK-293T) (PSI 1-6); higher = more stable
Conditions: c terminus: a fixed tail appended
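Also: lentivirally expressed fusions sorted by FACS into six bins by GFP to DsRed ratio, PSI derived from sequencing read proportions per bin multiplied by bin number.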

Protein stability index: each site, then its substitutions
K24: Q 1.23; P 1.17; R 2.59; N 1.43; T 1.34; Y 1.86; S 1.38; W 1.24; V 1.46

Variants of: B2
Test: as above
Conditions: c terminus: a fixed tail appended

Protein stability index of substitutions, site by site:
D23: L 2.07; N 2.42; E 2.44; G 1.79; H 2.3; K 1.84; I 1.57; C 1.51
L16: G 2.52; M 2.29; S 1.75; P 3.02; R 3.09; T 3.25; V 2.33; Y 1.99; D 3.53; C 2.08; F 2.37; A 1.96; Q 2.81; K 2.27; H 2.81; E 3.65; W 2.35; N 3.04; I 1.4
V18: A 1.61; K 3.26; I 2.32; T 2.02; D 2.53; N 2.55; M 1.92; P 2.59; H 1.81; Y 1.94; W 1.74; F 2.61; E 1.01; R 1.94; L 1.79; Q 2.31
Q3: N 1.24; G 1.73; T 1.94; F 2.34; E 2.51; W 1.51; A 2.01; L 1.84; M 3.03; R 1.48; I 1.58; H 2.04; K 2.54; Y 1.73; S 2.48; P 1.34; D 1.83
S21: E 2.71; L 1.74; H 1.76; K 1.82; N 1.79; Q 1.34; C 1.47; V 2.05; I 1.07; R 3.38; F 1.86; P 2.55; T 2.15; G 1.21; D 1.63
E19: P 2.57; K 2.33; M 3.89; T 1.22; R 3.07; I 1.71; V 1.45; S 1.35; H 1.62; Y 1.53; N 1.62; L 2.39; G 2.19; D 2.02; A 2.49; F 2.37
P6: D 2.08; N 1.07; T 1.42; C 1.72; M 3.4; E 1.85
V8: S 3.41; G 1.96; R 1.83; M 2.38; T 1.42; D 3.27; H 2.58; P 2.07; I 2.54; Q 2.25; N 2.03; W 3.04; C 2.04
F1: I 2; M 1.74; D 3.51; Q 2.98; N 3.15; K 3.17; Y 2.03; P 1.87; E 4.08; C 3.31; L 2; G 3.15; W 2.3; H 2.93
I7: D 3.31; R 2.08; P 2.78; C 1.89; M 1.78; Q 1.98; S 2.52; T 2.36; L 1.18; N 2.73; G 1.79; A 2.25; E 2.63; H 2.66
T12: E 3.19; N 2.4; A 3.14; P 2.05; H 1.58; K 2.15; D 2.38; Q 1.56; R 2.04; Y 2.47; V 1.51; I 1.89; M 1.48; S 1.78; L 1.64
R10: E 3.91; C 2.33; N 2.01; L 2.77; Y 2.44; M 1.48; K 2.65; G 2.89; F 1.41; A 2.41; P 2.49; V 2.6; I 1.53; H 2.37; D 3.87; T 2.5; S 3.5; Q 3.02
R14: S 1.98; T 1.99; N 2.88; P 3.1; H 2.06; L 1.9; K 1.95; E 3.03; A 2.84; I 2.78; Y 1.82; V 1.71; C 1.78; F 1.61
E17: A 1.03; R 5.49; V 1.24; C 1.84; S 2.15; N 3.09; Q 2.94; Y 3.5; P 2.05; D 1.91; F 3.92; G 2.09; K 2.41
A11: F 1.06; Y 3.67; I 1.67; T 2.24; P 2.31; D 3.15; M 1.73; K 1.83; S 1.77; G 1.95; R 1.65
S9: H 1.67; E 2.2; N 2.06; G 2.76; D 2.99; T 1.92; A 4.78; C 2.17; F 2.88; M 2.28; P 2.05; L 2.43
M20: D 4.53; K 2.32; H 2.65; P 3.38; W 1.55; T 3.24; E 3.66; S 3.05; R 2.73; Y 2.46; L 3.75; A 3.61; G 3.21; C 1.89; I 2.28; Q 3.23; N 3.34; F 1.93; V 2.18
T2: F 3.05; L 2.25; D 2.97; Y 2.53; E 3.58; A 1.92; K 1.72; N 2.17; Q 2.35; W 1.43; R 1.75; S 2.71; C 2.96; I 2.01
G13: E 2.76; I 1.14; N 2.41; D 3.13; F 2.15; A 1.86; H 1.99; Q 1.55; V 1.81; M 1.45; T 2.16; P 1.81; S 1.76; R 2.6; Y 4.09; K 1.91
S4: G 2.01; N 1.85; Q 2.35; T 2.82; Y 2.24; P 2; C 1.48; L 2.78; E 2.3; I 3.66; H 1.91; A 2.37; K 1.88
G5: Q 2.37; C 2.57; L 1.53; T 2.46; N 2.34; F 2.62; H 2.42; D 2.74; A 1.81; I 1.64; Y 3.35; V 2.39; R 1.66; S 2.54
K22: H 1.76; L 1.95; Y 2.62; D 3.38; P 3.13; Q 2.26; C 2.56; S 2.12; R 1.32; N 2.74; I 1.71; G 2.7; A 3.13
C15: Y 3.04; M 2.78; F 2.44; P 3.11; D 3.9; R 3.86; H 3.37; Q 3.14; T 2.99; I 2.7; N 3.75; K 2.53; S 2.7; L 4.19; V 3.06

Source: the supplement of paper PMC10567573
